Residue numbers refer to the chain shown, from its start.
B1: H1H3324P (antibody, V domains shown)
VH: EVQLVESGGGLVQPGGSLRLSCAASGFTFSSYDMHWVRQVIGKGLEWVSAIGTVGDTYYAGSVKGRFTISRENAKNSLYLQMNSLRAGDTAVYYCARDRGGANIYSFYYGMDVWGQGTTVTVSS
VL: DIQMTQSPSSLSVSVGDRVTITCRASQDISNYLAWYQQKPGKVPKLLIYAASTLQSGVPSRFSGSGSGTDFTLTISSLQPEDVATYFCQKYNSAPFTFGPGTKVDIKR
B2: H1H3328P (antibody, V domains shown)
VH: B1 VH with R19T, G26R, S31N, V40A, I41T, E72D, N73D, N103G, I104T
VL: B1 VL with V13A, I75V, F87Y, N92T
B3: H2aM3067N (antibody, V domains shown)
VH: QIQLVESGGGVVQPGRSLRLSCVASGFTLSGHGMHWVRQAPGKGLEWVAFISFDGGHQDYTDAAEGRFTISRDNSKNTLYLEMVSLRPADTAIYYCVKGSDSSRGFGYWGRGILVTVSS
VL: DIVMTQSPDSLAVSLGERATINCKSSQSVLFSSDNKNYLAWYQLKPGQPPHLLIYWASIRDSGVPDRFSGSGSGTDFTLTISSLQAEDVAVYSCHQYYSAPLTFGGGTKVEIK
notes: also called H2M3067N; H1M3067N
B4: H1M3117N (antibody, V domains shown)
VH: EVQLLESGGGLAQPGGSLRLSCAASGFNFGTHDMSWVRQAPGKGLEWVSGLTSTGGSASSADSVKGRFTISRDNSKNILYLQMNSLRAEDTAVYYCAKTFNWNSYFDYWGQGTLVTVSS
VL: EIVLTQSPGTLSLSPGERATLSCRASQSISTYYLAWYQQKPDQPPRLLIYGTSSRATGIPDRFSGSGSGTDFTLTISRLDPEDFAVYYCQQYGNSLYTFGQGTKLEIK
B5: Control I (anti-toxin A antibody with the variable domains of the "3D8" antibody of U.S. Pat. No. 7,625,559 and US2005/0287150) (antibody, human IgG1, kappa, V domains shown)
VH: QVQLVESGGGVVQPGRSLRLSCAASGFSFSNYGMHWVRQAPGKGLEWVALIWYDGSNEDYTDSVKGRFTISRDNSKNTLYLQMNSLRAEDTAVYYCARWGMVRGVIDVFDIWGQGTVVTVSS
VL: DIQMTQSPSSVSASVGDRVTITCRASQGISSWLAWYQHKPGKAPKLLIYAASSLQSGVPSRFSGSGSGTDFTLTISSLQPEDFATYYCQQANSFPWTFGQGTKVEIKR
notes: also called control 1; Control Antibody I
B6: H1H3411P (antibody, V domains shown)
VH: EVQLVESGGGLVQPGGSLRLSCAASGFTFSRYGMNWVRQAPGKGLEWVSAISGSGGSTYHADSVKGRFTISRDNSKNTLYLQMNSLRAADTAIYFCASYNWNDGVDVWGQGTTVTVS
VL: B5 VL with V15I, S31N, H38Q, A50G, P59S, S76I, W96Y, V104L
B7: H1M3134N (antibody, V domains shown)
VH: QVQLVESGGDVVQPGRSLRLSCAASGFTFSGHGMHWVRQAPGKGLEWVALILYDGSSEDYTDSVKGRFTVSRDNSKNTLYLQMNSLRAEDTAVYYCARGSILNRPFDYWGQGTLVTVSS
VL: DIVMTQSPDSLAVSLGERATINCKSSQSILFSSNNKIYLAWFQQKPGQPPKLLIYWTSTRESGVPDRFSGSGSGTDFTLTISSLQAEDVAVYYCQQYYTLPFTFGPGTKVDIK
notes: also called HIM3134N

Experiments:
[1] = target: T1, Clostridium difficile toxin A, soluble full-length (TechLab) (Clostridium difficile, UniProt P16154 1-2710); test: cell-based or functional assay
[2] = target: T1, Clostridium difficile toxin A, soluble …; test: SPR Biacore T200, 37C, mAb capture
[3] = target: T2, CBD-toxin B-Fc (Clostridium difficile, UniProt P18177 1851-2366); test: SPR Biacore, CBD-B-Fc captured, 500 nM mAb flowed
T2 construct: also called CBD-B; C-term Toxin B

[4] = target: T3, CBD-toxin A-Fc (Clostridium difficile, UniProt P16154 1848-2710); test: SPR Biacore, mAb captured, 100 nM CBD-A-Fc flowed
T3 construct: also called CBD-A; C-term Toxin A

[5] = target: T3, CBD-toxin A-Fc; test: SPR Biacore, CBD-A-Fc captured, 500 nM mAb flowed
[6] = target: T4, Clostridium difficile toxin B, soluble full-length (TechLab) (Clostridium difficile, UniProt P18177 2-2366); test: cell-based or functional assay
[7] = target: T4, Clostridium difficile toxin B, soluble …; test: SPR Biacore T200, 37C, mAb capture

Row | Binder | Kd [2] | T½ [2] | koff [2] | kon [2] | binding (RU) [4] | binding (RU) [5] | further results
1 | B1 | 0.0139 nM | 54.9 h | 3.5e-06 s⁻¹ | 251000 M⁻¹ s⁻¹ | 269 RU | 224 RU | IC50, Vero cell viability (neutralization), Trial 4, 32 pM Toxin A [1]: 33 pM; binding (RU) [3]: -8 RU
2 | B2 | 0.0957 nM | 5.27 h | 3.66e-05 s⁻¹ | 382000 M⁻¹ s⁻¹ | 354 RU | 227 RU | IC50, Vero cell viability (neutralization), Trial 3, 32 pM Toxin A [1]: 112 pM; binding (RU) [3]: -6 RU
3 | B3 |  |  |  |  | -2 RU | 237 RU | IC50, Vero cell viability (neutralization), Trial 1, 32 pM Toxin A [1]: 64 pM; IC50, Vero cell viability (neutralization), Trial 2, 32 pM Toxin A [1]: 44 pM
4 | B4 |  |  |  |  | -3 RU | 350 RU | IC50, Vero cell viability (neutralization), Trial 1, 32 pM Toxin A [1]: 29 pM; IC50, Vero cell viability (neutralization), Trial 2, 32 pM Toxin A [1]: 11 pM
5 | B5 | 0.0859 nM | 0.967 h | 3.24e-05 s⁻¹ | 377000 M⁻¹ s⁻¹ |  |  | IC50, Vero cell viability (neutralization), Trial 5, 25 pM Toxin A [1]: 199 pM
6 | B6 |  |  |  |  |  |  | IC50, Vero cell viability (neutralization), Trial 2, 0.1 pM Toxin B; antibody only partially protects (40-50%) at highest concentration [6]: 8 pM; Kd [7]: 0.677 nM; T½ [7]: 1.22 h; koff [7]: 0.000159 s⁻¹; kon [7]: 235000 M⁻¹ s⁻¹
7 | B7 |  |  |  |  | -1 RU | 195 RU | IC50, Vero cell viability (neutralization), Trial 4, 32 pM Toxin A [1]: 38 pM

Source: patent US20160264650A1 (Regeneron, published 2016)
